{
  "source": "IntAct's records for PubMed 23706742",
  "target": "pk3cb_mouse Pik3cb (UniProt Q8BTI9)",
  "data": [
    {"substance": "Ras-related C3 botulinum toxin substrate 1 (Mus musculus) (from UniProt P63001) I33D", "values": [
      {"measurement": "effect of a mutation on the interaction", "value": "decreasing interaction strength"}
    ]}
  ]
}
